According to article PMC5765355, “Phosphorylation of Pnut in the Early Stages of Drosophila Embryo Development Affects Association of the Septin Complex with the Membrane and Is Important for Viability” (G3: Genes|Genomes|Genetics, 2017):
Residue numbers refer to the chain shown, from its start.

Legend:
Details in all cases: both partners purified
[1] = target: T1, His-tagged nonphosphorylatable Pnut-T509A/S517A (Drosophila melanogaster, UniProt P40797 1-539, T509A | S517A); experiment: pull-down; 2 µg purified recombinant septin complex diluted in 200 µl pull-down buffer (25 mM HEPES pH 7.6, 2 mM MgCl2, 10 mM imidazole) with 300 mM KCl; His-Pnut held on HisPur Ni-NTA resin, 1 hr at 22°; eluted with 250 mM imidazole; silver-stained SDS-PAGE; Sep1 given as a percentage of the Pnut amount
T1 construct: Septin Pnut (Peanut), Drosophila melanogaster, with T509A and S517A; source: baculovirus expression system, expressed together with Sep1 and Sep2; assembled complex purified
T1 sequence (looked up): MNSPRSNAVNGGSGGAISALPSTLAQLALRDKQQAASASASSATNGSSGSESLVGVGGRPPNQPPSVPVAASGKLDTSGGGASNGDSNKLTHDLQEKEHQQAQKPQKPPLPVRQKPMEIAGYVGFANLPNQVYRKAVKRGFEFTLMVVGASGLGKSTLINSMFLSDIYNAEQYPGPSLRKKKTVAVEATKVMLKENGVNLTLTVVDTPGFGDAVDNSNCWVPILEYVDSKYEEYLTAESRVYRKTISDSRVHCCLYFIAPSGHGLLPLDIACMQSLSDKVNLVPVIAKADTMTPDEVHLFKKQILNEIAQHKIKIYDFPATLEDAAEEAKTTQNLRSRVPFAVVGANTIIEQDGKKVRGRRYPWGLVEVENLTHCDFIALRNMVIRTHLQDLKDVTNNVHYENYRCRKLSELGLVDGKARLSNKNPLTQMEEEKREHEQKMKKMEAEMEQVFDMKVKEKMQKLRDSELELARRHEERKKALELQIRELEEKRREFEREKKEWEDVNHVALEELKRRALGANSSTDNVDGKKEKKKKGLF

[2] = target: T2, His-tagged wild-type Pnut (Drosophila melanogaster, UniProt P40797 1-539); experiment: as above
T2 construct: Septin Pnut (Peanut), Drosophila melanogaster, wild type; homolog of human SEPT7; also called His–Pnut; Pnut-WT; source: baculovirus expression system, expressed together with Sep1 and Sep2; assembled complex purified
T2 sequence (looked up): T1 sequence (looked up) with A509T, A517S

[3] = target: T3, His-tagged phospho-mimetic Pnut-T509E/S517E (Drosophila melanogaster, UniProt P40797 1-539, T509E | S517E); experiment: as above
T3 construct: Septin Pnut (Peanut), Drosophila melanogaster, with T509E and S517E; also called T509E/S517E mutant; source: baculovirus expression system, expressed together with Sep1 and Sep2; assembled complex purified
T3 sequence (looked up): T1 sequence (looked up) with A509E, A517E

[4] = target: T1, His-tagged nonphosphorylatable …; experiment: pull-down; 2 µg purified recombinant septin complex diluted in 200 µl pull-down buffer (25 mM HEPES pH 7.6, 2 mM MgCl2, 10 mM imidazole) with 50 mM KCl; His-Pnut held on HisPur Ni-NTA resin, 1 hr at 22°; eluted with 250 mM imidazole; silver-stained SDS-PAGE; Sep1 given as a percentage of the Pnut amount
[5] = target: T2, His-tagged wild-type Pnut; experiment: as above
[6] = target: T3, His-tagged phospho-mimetic …; experiment: as above

B1: Sep1 (recombinant) (natural protein, Drosophila melanogaster, UniProt P42207 1-361, looked up)
chain: MADTKGFSSIETPGYVGFANLPNQVHRKSVKKGFEFTLMVVGESGLGKSTLVNSLFLTDLYPERIIPDAIEKQKQTVKLEASTVEIEERGVKLRLTVVDTPGFGDAIDNSNSFGAILEYIDEQYERFLRDESGLNRRNIVDNRIHCCFYFISPFGHGLKPLDVEFMKKLHSKVNIVPVIAKADCLTKKEILRLKCRIMQEIESHGIKIYPLPDCDSDEDEDYKEQVKQLKEAVPFAVCGANTLLEVKGKKVRGRLYPWGVVEVENPDHCDFIKLRTMLITHMQDLQEVTQEVHYENYRSDRLAKGIKGKENGVKAERDSSSQVVSNSVLGEKDRILQEKEAELRRMQEMLAQMQARMQAQQ
notes: Septin Sep1, Drosophila melanogaster; homolog of human SEPT2; source: baculovirus expression system, expressed together with His-tagged Pnut and Sep2; assembled complex purified
amount of Sep1 as a percentage of the Pnut amount [1]: 62% | amount of Sep1 as a percentage of the Pnut amount [2]: 62.3% | amount of Sep1 as a percentage of the Pnut amount [3]: 31% | amount of Sep1 as a percentage of the Pnut amount [4]: 17% | amount of Sep1 as a percentage of the Pnut amount [5]: 34% | amount of Sep1 as a percentage of the Pnut amount [6]: 1%

B2: Sep2 (recombinant) (natural protein, Drosophila melanogaster, UniProt P54359 1-419, looked up)
chain: MSVEVDFVDKKEVHLRTLKQSGHVGFDSLPDQLVNKSVQNGFVFNVMCIGETGLGKSTLMDTLFNTSFESTPSPHTLPSVKLKAHTYELQESNVRLKLTICDTVGYGDQINKDDSFKAVVDYIDAQFENYLQEELKIKRSLVTCHDSRIHICLYFICPTGHGLKSLDLVCMKKLDSKVNIIPVIAKADTISKVELQRFKAKIIQELNANGVHIYQFPTDDETVAETNTSMNSHIPFAVVGSTEFIKVGNKLIRARQYPWGTVQVENETHCDFVKLREMLIRTNMEDMREKTHTRHYELYRQKRLEQMGFSDVDSDNKPISFQQTFEAKRSNHLAELQSKEEEVRQMFVQRVKEKEAELKESEKDLHAKFEKLKRDHAEEKRKLEESRKALEEDYLDFQRRKQQLATAHHTLTLGKSKKK
notes: Septin Sep2, Drosophila melanogaster; homolog of human SEPT6; source: baculovirus expression system, expressed together with His-tagged Pnut and Sep1; assembled complex purified
binding result [1]: binds | binding result [2]: binds | binding result [6]: binds
